From patent publication US6340783
One block for each substance: values may come before it.

Legend:
[1] = molecular target: beta-amyloid protein (BAP) residues 1-28, synthetic peptide (Homo sapiens (Human)) (UniProt P05067); experiment: competition with 125I-HSPG for binding to the BAP (1-28) affinity column
[2] = molecular target: beta-amyloid protein (BAP) residues 1-28, synthetic peptide (Homo sapiens (Human)) (UniProt P05067); experiment: BAP (1-28) affinity column after heparitinase/heparinase digestion
[3] = molecular target: beta-amyloid protein (BAP) residues 1-28, synthetic peptide (Homo sapiens (Human)) (UniProt P05067); experiment: BAP (1-28) affinity column, no unlabeled competing ligand
[4] = molecular target: β/A4 (1-28) with three amino acid substitutions of the putative heparin binding domain (histidine, histidine and lysine changed to glycine) (UniProt P05067); experiment: affinity column chromatography of 125I-HSPG, mutated versus normal β/A4 (1-28) column
Chain of β/A4 (1-28) with three amino acid substitutions of the putative heparin binding domain (histidine, histidine and lysine changed to glycine) (P05067 672-699): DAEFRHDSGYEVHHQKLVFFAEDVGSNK

IC50 [1]: < 1 µM
Substance: low density heparan sulfate proteoglycan isolated from the mouse Engelbreth-Holm-Swarm (EHS) sarcoma (perlecan), Q05793 22-3707

percent still able to bind in comparison to undigested controls [2]: 61%
Substance: heparitinase/heparinase-digested 125I-labeled HSPG, A0AAA9TDR0 23-4401

percent bound [3]: 21.6%
Substance: high Mr heparan sulfate proteoglycan (HSPG) isolated from the culture media of bovine aortic endothelial cells, A0AAA9TDR0 23-4401

percent decrease in binding against normal β/A4 (1-28) [4]: 50 to 60%
Substance: high Mr heparan sulfate proteoglycan (HSPG) isolated from the culture media of bovine aortic endothelial cells (from UniProt A0AAA9TDR0 23-4401)
